One block for each binder: values may come before it.
Assays:
[1] = molecular target: T1, PLC-γ1 (Phospholipase C-γ1), 1–1219 (UniProt P19174 1-1219); test: ITC; VP-ITC; 5°C; 20 mM Hepes (pH 7.4), 100 mM NaCl, 0.1 mM DTT; 4 μM in the cell, 40 μM in the syringe; single binding site fit with 1:1 stoichiometry; 3 independent experiments; conditions: both partners purified
T1 construct: the text calls it full length PLC-γ1; also called full length PLC-γ1
T1 sequence (looked up): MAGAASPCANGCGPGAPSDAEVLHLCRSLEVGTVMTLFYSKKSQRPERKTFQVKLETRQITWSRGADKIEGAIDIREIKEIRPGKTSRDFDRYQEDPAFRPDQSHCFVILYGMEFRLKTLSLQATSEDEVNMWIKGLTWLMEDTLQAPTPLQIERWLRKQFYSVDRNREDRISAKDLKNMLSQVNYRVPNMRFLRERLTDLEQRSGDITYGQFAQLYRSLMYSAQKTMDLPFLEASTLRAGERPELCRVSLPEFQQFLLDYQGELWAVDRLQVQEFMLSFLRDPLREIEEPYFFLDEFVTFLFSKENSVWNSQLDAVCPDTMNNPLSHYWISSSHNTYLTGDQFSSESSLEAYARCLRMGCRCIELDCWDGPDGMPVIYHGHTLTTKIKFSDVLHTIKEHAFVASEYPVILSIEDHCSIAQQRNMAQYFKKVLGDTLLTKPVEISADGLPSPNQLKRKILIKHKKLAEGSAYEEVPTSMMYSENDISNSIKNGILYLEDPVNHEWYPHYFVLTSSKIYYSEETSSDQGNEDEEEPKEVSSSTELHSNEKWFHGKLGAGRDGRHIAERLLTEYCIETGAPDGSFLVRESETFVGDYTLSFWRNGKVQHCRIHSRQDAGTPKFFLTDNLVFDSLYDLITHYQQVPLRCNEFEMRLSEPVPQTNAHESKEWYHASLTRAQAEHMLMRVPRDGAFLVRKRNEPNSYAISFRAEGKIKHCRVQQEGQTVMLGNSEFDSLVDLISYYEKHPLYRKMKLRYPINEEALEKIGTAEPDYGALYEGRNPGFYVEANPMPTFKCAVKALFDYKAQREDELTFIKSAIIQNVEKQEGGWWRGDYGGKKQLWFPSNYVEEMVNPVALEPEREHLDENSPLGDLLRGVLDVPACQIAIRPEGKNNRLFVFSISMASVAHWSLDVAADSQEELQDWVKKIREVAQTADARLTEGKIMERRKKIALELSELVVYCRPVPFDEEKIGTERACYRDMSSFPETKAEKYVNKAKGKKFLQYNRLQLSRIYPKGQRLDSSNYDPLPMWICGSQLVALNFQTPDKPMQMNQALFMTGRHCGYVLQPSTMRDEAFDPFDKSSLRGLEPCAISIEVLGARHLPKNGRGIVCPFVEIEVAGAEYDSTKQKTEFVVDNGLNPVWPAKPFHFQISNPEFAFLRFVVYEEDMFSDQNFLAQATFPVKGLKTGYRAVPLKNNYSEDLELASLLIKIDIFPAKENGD

[2] = molecular target: T1, PLC-γ1 (Phospholipase C-γ1), 1–1219; test: cell-based or functional assay

Kd [1]: 3.99 µM | dH [1]: -3.3 kcal/mol
B1: SLP-76 PRR peptide (aa 185–200), wild type (peptide, UniProt Q13094 185-200, looked up)
peptide: QPPVPPQRPMAALPPP
notes: SLP-76 proline-rich region, residues 185–200; also called SLP-76 185–200 (WT); SLP-76 PRR_(185–200) peptide

Kd [1]: 2.32 µM | dH [1]: -3.8 kcal/mol | PLC-γ1 activity (IP3 from PIP2-bearing liposomes): LAT-Gads-SLP-76^WT-PLC-γ1 tetramer against PLC-γ1 with phospho-LAT alone [2]: 1.7 fold
B2: SLP-76^WT polypeptide (aa 103–258, Y113F, Y173F) (domain or fragment, UniProt Q13094 103-258, looked up)
chain: GGWSSFEEDDFESPNDDQDGEDDGDYESPNEEEEAPVEDDADYEPPPSNDEEALQNSILPAKPFPNSNSMFIDRPPSGKTPQQPPVPPQRPMAALPPPPAGRNHSPLPPPQTNHEEPSRSRNHKTAKLPAPSIDRSTKPPLDRSLAPFDREPFTLG
notes: wild-type proline-rich region; not shown: His6, N-terminal, cleaved; GST, N-terminal, cleaved

Reference: doi:10.1101/2025.09.11.675682, “Weak SLP-76-PLC-γ1 interaction in the LAT-nucleated multi-protein complex fine-tunes TCR signal strength to optimize T cell responsiveness” (bioRxiv, 2025)
